The target in experiment [1] is T1, FcγRIa extracellular domain with C-terminal His tag (human, UniProt P12314 16-292).
T1 construct: extracellular domain; Expressed in FreeStyle293 cells; analyte in Biacore; also called FcgRI; FcgRIa
The experiment can be described thus: SPR Biacore, antibody captured, FcγRIa analyte; vs GpH7-A5/GpH7-B3/GpL16-k0 = 100.
T1 sequence (P12314 16-292): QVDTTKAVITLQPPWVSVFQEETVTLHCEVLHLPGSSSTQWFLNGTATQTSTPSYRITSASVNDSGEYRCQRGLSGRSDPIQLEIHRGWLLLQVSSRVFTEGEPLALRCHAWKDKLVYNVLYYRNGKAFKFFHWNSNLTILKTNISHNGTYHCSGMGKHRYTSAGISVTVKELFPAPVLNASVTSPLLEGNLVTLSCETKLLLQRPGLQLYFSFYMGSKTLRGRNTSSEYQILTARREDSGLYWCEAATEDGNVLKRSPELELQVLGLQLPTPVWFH

Experiment [2] concerns the target T2, FcγRIa extracellular domain with C-terminal His tag (human, UniProt P12314 16-292).
T2 construct: extracellular domain; also called FcgRI; CD64; not shown: His tag at the C terminus
The experiment can be described thus: SPR Biacore, relative FcγRIa binding vs GpH7-B3/GpL16-k0.
T2 sequence (P12314 16-292): as above

B1: GpH7-A5/GpH7-B3 variant Q295_04F/GpL16-k0 (He Ab) (antibody, human IgG1, kappa)
heavy 1: not shown
heavy 2: not shown
light: DIVMTQSPLSLPVTPGEPASISCQASESLVHSNRNTYLHWYLQKPGQSPQLLIYKVSNRFSGVPDRFSGSGSGTDFTLKISRVEAEDVGVYYCSQNTHVPPTFGQGTKVEIERTVAAPSVFIFPPSDEQLKSGTASVVCLLNNFYPREAKVQWKVDNALQSGNSQESVTEQDSKDSTYSLSSTLTLSKADYEKHKVYACEVTHQGLSSPVTKSFNRGEC
notes: He Ab: alteration only in the GpH7-B3 chain
As for B1, in experiment [1], the He/Con_1a was 102 relative (control = 100).

B2: GpH7-A5/GpH7-B3 variant S324_02A/GpL16-k0 (He Ab) (antibody, human IgG1, kappa)
heavy 1: not shown
heavy 2: not shown
light: B1 light
notes: as for B1
For the molecule B2, in experiment [1], the He/Con_1a is 103 relative (control = 100).

B3: GpH7-B3 variant S267_02A/GpL16-k0 (antibody, human IgG1, kappa)
heavy: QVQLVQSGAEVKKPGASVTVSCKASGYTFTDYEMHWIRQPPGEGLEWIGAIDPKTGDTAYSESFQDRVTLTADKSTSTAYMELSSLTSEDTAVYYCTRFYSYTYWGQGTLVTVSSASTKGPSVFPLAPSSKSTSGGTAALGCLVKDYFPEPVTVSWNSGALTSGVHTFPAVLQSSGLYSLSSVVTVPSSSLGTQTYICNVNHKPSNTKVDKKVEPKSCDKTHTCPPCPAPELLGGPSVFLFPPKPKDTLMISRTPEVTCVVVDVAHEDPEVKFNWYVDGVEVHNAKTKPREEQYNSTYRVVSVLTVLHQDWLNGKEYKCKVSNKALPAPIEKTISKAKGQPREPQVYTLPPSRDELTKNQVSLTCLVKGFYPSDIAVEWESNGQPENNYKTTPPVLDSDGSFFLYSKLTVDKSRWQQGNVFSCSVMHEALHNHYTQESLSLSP
light: B1 light
notes: mutation in both H chains; also called Ho Ab S267_02A; S267A
On to B3, for which, in experiment [2], the Ho/Con_1a is 108 % of HoCon Ab (=100).

B4: GpH7-A5/GpH7-B3 variant S298_03V/GpL16-k0 (He Ab) (antibody, human IgG1, kappa)
heavy 1: not shown
heavy 2: not shown
light: B1 light
notes: as for B1
For B4, the He/Con_1a in experiment [1] is 110 relative (control = 100).

B5: GpH7-B3 variant S267_03V/GpL16-k0 (antibody, human IgG1, kappa)
heavy: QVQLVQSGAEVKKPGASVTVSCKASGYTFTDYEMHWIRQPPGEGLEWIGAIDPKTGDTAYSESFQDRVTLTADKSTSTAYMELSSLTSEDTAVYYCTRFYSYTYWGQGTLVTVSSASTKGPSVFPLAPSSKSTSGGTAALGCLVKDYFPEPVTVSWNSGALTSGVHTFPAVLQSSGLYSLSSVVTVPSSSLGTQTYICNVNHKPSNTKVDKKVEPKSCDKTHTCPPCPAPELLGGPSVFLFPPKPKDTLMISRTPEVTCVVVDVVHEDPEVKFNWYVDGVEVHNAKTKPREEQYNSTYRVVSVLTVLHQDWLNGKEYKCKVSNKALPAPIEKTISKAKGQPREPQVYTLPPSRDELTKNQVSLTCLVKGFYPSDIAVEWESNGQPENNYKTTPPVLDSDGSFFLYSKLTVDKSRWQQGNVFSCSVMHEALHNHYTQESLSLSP
light: B1 light
notes: mutation in both H chains; also called Ho Ab S267_03V; S267V
As for B5, the Ho/Con_1a in experiment [2] was 102 % of HoCon Ab (=100).

B6: GpH7-A5/GpH7-B3 variant S239_09D/GpL16-k0 (He Ab) (antibody, human IgG1, kappa)
heavy 1: not shown
heavy 2: not shown
light: B1 light
notes: as for B1
Turning to B6, the He/Con_1a in experiment [1] is 101 relative (control = 100).

B7: GpH7-A5/GpH7-B3 variant S267_02A/GpL16-k0 (He Ab) (antibody, human IgG1, kappa)
heavy 1: not shown
heavy 2: not shown
light: B1 light
notes: as for B1
Turning to B7, the He/Con_1a in experiment [1] was 109 relative (control = 100).

B8: GpH7-B3 variant S267_16H/GpL16-k0 (antibody, human IgG1, kappa)
heavy: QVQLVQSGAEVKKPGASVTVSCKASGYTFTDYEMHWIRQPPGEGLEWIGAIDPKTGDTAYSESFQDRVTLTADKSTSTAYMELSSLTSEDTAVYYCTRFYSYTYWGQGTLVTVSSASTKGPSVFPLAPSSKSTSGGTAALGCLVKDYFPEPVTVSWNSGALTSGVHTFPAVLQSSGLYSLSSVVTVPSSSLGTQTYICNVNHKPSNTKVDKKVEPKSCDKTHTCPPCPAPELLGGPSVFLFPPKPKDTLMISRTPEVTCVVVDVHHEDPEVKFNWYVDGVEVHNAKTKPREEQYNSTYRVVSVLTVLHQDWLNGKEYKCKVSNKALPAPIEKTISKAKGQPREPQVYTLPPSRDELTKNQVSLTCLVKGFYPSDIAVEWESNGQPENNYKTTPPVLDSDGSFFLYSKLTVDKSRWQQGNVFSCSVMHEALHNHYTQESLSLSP
light: B1 light
notes: mutation in both H chains; also called Ho Ab S267_16H; S267H
In the case of B8, the Ho/Con_1a in experiment [2] was 98.2 % of HoCon Ab (=100).

B9: GpH7-B3 variant S298_15Y/GpL16-k0 (antibody, human IgG1, kappa)
heavy: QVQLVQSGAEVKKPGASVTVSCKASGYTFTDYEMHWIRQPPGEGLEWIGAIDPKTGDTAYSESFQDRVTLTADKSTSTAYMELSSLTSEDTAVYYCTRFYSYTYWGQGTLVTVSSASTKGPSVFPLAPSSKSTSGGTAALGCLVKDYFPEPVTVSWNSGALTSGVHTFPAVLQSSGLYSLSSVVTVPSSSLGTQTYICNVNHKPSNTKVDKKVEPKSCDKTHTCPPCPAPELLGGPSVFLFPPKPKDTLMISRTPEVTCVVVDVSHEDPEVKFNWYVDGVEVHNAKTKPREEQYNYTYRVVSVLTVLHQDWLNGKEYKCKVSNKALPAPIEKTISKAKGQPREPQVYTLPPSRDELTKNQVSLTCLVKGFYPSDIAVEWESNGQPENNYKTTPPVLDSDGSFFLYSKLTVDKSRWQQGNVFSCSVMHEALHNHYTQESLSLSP
light: B1 light
notes: mutation in both H chains; also called Ho Ab S298_15Y; S298Y
As for B9, the Ho/Con_1a in experiment [2] was 103 % of HoCon Ab (=100).

B10: GpH7-B3 variant S298_04F/GpL16-k0 (antibody, human IgG1, kappa)
heavy: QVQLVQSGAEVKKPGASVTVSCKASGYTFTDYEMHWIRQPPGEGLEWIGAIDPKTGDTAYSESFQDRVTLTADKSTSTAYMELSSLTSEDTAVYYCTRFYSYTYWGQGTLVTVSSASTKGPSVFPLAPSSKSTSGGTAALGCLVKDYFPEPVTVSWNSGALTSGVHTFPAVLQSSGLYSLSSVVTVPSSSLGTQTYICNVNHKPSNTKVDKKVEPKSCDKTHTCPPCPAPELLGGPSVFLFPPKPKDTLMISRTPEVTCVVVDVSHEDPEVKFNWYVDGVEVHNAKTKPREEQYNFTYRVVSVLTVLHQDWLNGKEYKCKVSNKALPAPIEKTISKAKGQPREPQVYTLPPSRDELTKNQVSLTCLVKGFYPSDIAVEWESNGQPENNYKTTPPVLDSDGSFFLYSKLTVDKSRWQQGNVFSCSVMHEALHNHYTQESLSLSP
light: B1 light
notes: mutation in both H chains; also called Ho Ab S298_04F; S298F
As to B10, in experiment [2], the Ho/Con_1a was 107 % of HoCon Ab (=100).

B11: GpH7-A5/GpH7-B3 variant S267_03V/GpL16-k0 (He Ab) (antibody, human IgG1, kappa)
heavy 1: not shown
heavy 2: not shown
light: B1 light
notes: as for B1
On to B11, for which the He/Con_1a in experiment [1] is 106 relative (control = 100).

B12: GpH7-A5/GpH7-B3 variant S267_01G/GpL16-k0 (He Ab) (antibody, human IgG1, kappa)
heavy 1: not shown
heavy 2: not shown
light: B1 light
notes: as for B1
B12: the He/Con_1a in experiment [1] is 103 relative (control = 100).

B13: GpH7-A5/GpH7-B3 variant S298_16H/GpL16-k0 (He Ab) (antibody, human IgG1, kappa)
heavy 1: not shown
heavy 2: not shown
light: B1 light
notes: as for B1
Consider B13, for which, in experiment [1], the He/Con_1a was 109 relative (control = 100).

B14: GpH7-A5/GpH7-B3 variant Q295_07I/GpL16-k0 (He Ab) (antibody, human IgG1, kappa)
heavy 1: not shown
heavy 2: not shown
light: B1 light
notes: as for B1
Turning to B14, the He/Con_1a in experiment [1] was 103 relative (control = 100).

B15: GpH7-A5/GpH7-B3 variant Q295_03V/GpL16-k0 (He Ab) (antibody, human IgG1, kappa)
heavy 1: not shown
heavy 2: not shown
light: B1 light
notes: as for B1
For B15, the He/Con_1a in experiment [1] was 104 relative (control = 100).

B16: GpH7-A5/GpH7-B3 variant S324_19Q/GpL16-k0 (He Ab) (antibody, human IgG1, kappa)
heavy 1: not shown
heavy 2: not shown
light: B1 light
notes: as for B1
As to B16, the He/Con_1a in experiment [1] was 112 relative (control = 100).

B17: GpH7-B3 variant S298_03V/GpL16-k0 (antibody, human IgG1, kappa)
heavy: not shown
light: B1 light
notes: mutation in both H chains; also called Ho Ab S298_03V; S298V
With B17, the Ho/Con_1a in experiment [2] is 106 % of HoCon Ab (=100).

B18: GpH7-B3 variant S298_18N/GpL16-k0 (antibody, human IgG1, kappa)
heavy: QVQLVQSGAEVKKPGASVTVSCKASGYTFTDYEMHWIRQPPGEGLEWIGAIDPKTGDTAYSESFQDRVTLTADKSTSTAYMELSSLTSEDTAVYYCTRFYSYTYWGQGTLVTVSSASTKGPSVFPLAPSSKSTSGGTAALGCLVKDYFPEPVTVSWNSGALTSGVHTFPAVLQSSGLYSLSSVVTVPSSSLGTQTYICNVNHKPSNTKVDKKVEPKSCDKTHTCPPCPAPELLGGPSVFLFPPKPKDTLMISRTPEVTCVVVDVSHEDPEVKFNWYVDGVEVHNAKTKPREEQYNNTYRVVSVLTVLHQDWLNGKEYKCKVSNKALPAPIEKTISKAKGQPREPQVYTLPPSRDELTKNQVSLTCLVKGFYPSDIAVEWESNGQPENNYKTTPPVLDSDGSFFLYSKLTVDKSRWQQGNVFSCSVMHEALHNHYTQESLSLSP
light: B1 light
notes: mutation in both H chains; also called Ho Ab S298_18N; S298N
Regarding B18, the Ho/Con_1a in experiment [2] was 104 % of HoCon Ab (=100).

B19: GpH7-B3 variant S298_10E/GpL16-k0 (antibody, human IgG1, kappa)
heavy: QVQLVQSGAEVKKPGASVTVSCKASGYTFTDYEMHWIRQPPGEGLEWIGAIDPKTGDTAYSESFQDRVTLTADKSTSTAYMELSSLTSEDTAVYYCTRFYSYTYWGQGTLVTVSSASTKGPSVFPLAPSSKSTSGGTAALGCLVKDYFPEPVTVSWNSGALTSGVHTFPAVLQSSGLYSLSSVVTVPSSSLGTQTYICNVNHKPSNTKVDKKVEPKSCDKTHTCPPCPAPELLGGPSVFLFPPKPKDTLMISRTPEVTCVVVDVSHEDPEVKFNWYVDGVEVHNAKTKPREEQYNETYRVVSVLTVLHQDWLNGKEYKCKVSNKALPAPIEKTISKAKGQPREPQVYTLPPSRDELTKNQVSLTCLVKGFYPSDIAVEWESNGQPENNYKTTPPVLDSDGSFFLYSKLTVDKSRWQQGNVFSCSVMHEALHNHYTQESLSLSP
light: B1 light
notes: mutation in both H chains; also called Ho Ab S298_10E; S298E
As to B19, the Ho/Con_1a in experiment [2] is 106 % of HoCon Ab (=100).

B20: GpH7-B3 variant S298_07I/GpL16-k0 (antibody, human IgG1, kappa)
heavy: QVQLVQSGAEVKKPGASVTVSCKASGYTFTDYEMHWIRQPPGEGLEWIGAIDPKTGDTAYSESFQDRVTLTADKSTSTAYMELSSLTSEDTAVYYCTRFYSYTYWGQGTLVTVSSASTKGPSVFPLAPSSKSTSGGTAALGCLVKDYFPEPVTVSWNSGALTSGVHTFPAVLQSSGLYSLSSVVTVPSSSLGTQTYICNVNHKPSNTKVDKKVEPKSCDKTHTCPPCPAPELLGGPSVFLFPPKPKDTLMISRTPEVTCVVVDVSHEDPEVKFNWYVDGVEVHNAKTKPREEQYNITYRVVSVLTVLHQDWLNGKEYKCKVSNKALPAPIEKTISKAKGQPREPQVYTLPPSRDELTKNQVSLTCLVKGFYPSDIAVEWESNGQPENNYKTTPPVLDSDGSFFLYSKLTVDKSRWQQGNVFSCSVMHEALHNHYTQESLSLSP
light: B1 light
notes: mutation in both H chains; also called Ho Ab S298_07I; S298I
Consider B20, for which the Ho/Con_1a in experiment [2] is 103 % of HoCon Ab (=100).

B21: GpH7-B3 variant S298_12R/GpL16-k0 (antibody, human IgG1, kappa)
heavy: not shown
light: B1 light
notes: mutation in both H chains; also called Ho Ab S298_12R; S298R
On to B21, for which, in experiment [2], the Ho/Con_1a was 94.5 % of HoCon Ab (=100).

B22: GpH7-B3 variant S267_08L/GpL16-k0 (antibody, human IgG1, kappa)
heavy: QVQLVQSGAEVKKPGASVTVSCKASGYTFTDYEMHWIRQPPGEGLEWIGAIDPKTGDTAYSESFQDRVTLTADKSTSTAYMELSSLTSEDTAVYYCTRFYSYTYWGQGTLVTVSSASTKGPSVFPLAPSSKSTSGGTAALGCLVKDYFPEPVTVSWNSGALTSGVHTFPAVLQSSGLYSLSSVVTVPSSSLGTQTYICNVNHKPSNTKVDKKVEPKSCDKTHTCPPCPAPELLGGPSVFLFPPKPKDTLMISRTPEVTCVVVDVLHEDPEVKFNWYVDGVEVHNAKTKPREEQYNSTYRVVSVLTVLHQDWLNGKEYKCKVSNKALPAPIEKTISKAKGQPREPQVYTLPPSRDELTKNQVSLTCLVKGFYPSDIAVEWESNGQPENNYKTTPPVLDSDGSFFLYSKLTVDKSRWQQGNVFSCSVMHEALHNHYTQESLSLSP
light: B1 light
notes: mutation in both H chains; also called Ho Ab S267_08L; S267L
B22: the Ho/Con_1a in experiment [2] is 99.9 % of HoCon Ab (=100).

B23: GpH7-A5/GpH7-B3 variant S298_18N/GpL16-k0 (He Ab) (antibody, human IgG1, kappa)
heavy 1: not shown
heavy 2: not shown
light: B1 light
notes: as for B1
Regarding B23, the He/Con_1a in experiment [1] was 108 relative (control = 100).

B24: GpH7-B3 variant S267_09D/GpL16-k0 (antibody, human IgG1, kappa)
heavy: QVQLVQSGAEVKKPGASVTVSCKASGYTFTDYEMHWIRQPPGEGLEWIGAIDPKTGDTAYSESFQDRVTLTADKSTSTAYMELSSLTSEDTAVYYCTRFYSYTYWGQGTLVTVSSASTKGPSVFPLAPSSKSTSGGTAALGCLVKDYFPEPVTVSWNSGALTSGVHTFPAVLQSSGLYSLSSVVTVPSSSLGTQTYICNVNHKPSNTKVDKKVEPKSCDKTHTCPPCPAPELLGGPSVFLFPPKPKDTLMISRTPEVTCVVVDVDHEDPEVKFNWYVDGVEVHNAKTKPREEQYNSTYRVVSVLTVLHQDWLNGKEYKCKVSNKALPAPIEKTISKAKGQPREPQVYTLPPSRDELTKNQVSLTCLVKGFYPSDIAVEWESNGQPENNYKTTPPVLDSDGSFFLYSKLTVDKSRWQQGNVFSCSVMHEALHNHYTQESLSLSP
light: B1 light
notes: mutation in both H chains; also called Ho Ab S267_09D; S267D
For B24, the Ho/Con_1a in experiment [2] was 106 % of HoCon Ab (=100).

B25: GpH7-B3 variant S298_06M/GpL16-k0 (antibody, human IgG1, kappa)
heavy: not shown
light: B1 light
notes: mutation in both H chains; also called Ho Ab S298_06M; S298M
For B25, the Ho/Con_1a in experiment [2] is 106 % of HoCon Ab (=100).

B26: GpH7-A5/GpH7-B3 variant Q295_18N/GpL16-k0 (He Ab) (antibody, human IgG1, kappa)
heavy 1: not shown
heavy 2: not shown
light: B1 light
notes: as for B1
Regarding B26, in experiment [1], the He/Con_1a was 102 relative (control = 100).

B27: GpH7-A5/GpH7-B3 variant S298_10E/GpL16-k0 (He Ab) (antibody, human IgG1, kappa)
heavy 1: not shown
heavy 2: not shown
light: B1 light
notes: as for B1
B27: the He/Con_1a in experiment [1] is 108 relative (control = 100).

B28: GpH7-A5/GpH7-B3 variant S337_01G/GpL16-k0 (He Ab) (antibody, human IgG1, kappa)
heavy 1: not shown
heavy 2: not shown
light: B1 light
notes: as for B1
Take B28: the He/Con_1a in experiment [1] is 107 relative (control = 100).

Source of the values: patent US20180155451A1 (published 2018).
